Experimental findings from paper PMC10180154, “Screening and Identification of ssDNA Aptamers for Low-Density Lipoprotein (LDL) Receptor-Related Protein 6” are described below.

The data set has as its target LRP6 (recombinant human LRP-6, Fc chimera) (Homo sapiens, UniProt O75581 20-1370). The experiment in a line: SPR; CE-LIF: incubation pH 8.0, 0.155% glutathione, 0.395% Tris-HCl; running buffer 50 mM borate pH 7.6, 20 kV, 25 C (CE-SELEX conditions). SPR: PBST pH 7.4, 0.05% Tween-20, 25 C, protein amine-coupled on CM5. AuNP: room temperature, then 0.9 M NaCl. Conditions: protein: commercial; tags: Fc chimera; chain copies: 2. In general terms: In SPR one partner is held on a chip, and binding of the other changes the refractive index at the surface.

Sequence of LRP6 (recombinant human LRP-6, Fc chimera) (O75581 20-1370, change not shown): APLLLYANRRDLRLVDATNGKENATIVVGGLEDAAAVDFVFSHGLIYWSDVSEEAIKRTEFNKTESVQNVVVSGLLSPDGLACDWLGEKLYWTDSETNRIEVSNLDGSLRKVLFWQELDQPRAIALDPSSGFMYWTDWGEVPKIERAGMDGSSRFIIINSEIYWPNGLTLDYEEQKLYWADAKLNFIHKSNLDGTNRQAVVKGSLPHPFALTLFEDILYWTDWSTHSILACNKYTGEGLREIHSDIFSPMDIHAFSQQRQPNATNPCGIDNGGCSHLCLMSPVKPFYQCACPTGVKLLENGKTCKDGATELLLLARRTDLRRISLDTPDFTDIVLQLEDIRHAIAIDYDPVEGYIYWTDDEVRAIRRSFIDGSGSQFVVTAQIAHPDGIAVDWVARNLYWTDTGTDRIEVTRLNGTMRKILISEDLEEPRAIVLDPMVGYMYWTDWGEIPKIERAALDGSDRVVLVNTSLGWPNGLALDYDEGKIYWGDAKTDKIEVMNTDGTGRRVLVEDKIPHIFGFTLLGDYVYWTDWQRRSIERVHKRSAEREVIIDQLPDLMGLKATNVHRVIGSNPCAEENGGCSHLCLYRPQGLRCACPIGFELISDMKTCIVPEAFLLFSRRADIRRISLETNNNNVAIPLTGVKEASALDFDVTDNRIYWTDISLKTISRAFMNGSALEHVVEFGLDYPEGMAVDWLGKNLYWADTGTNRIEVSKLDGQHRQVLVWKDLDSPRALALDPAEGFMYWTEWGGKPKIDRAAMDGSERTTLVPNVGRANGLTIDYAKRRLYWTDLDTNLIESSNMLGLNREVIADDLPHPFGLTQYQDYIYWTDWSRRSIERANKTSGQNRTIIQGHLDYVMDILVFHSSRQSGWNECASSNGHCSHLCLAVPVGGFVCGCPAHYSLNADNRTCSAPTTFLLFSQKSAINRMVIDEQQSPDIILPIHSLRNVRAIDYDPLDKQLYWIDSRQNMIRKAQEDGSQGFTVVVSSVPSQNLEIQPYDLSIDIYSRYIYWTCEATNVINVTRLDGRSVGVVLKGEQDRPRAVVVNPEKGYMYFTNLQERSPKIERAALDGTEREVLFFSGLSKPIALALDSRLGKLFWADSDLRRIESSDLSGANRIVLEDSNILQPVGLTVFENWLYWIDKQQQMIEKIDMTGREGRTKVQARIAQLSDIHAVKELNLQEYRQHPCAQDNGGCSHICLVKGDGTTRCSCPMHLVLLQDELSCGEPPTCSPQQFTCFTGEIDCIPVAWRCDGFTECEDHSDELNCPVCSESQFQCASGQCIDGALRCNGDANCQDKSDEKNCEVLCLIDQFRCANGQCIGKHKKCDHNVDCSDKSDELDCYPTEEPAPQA

B1: MutLRP6-A2 (ssDNA)
DNA: AGCAGCACTTAGGTCAGATGGCCACATTAGTCTCACCACTACCTTTTTTCCTACCGCCGCCCTATGCGTGCTACCGTGAA
In the case of B1, the binding result was “no binding”.

B2: MutLRP6-A3 (ssDNA)
DNA: AGCAGCACAGAGGTTATTTGGCAGCTAAGCAGGCGGCTCACAAAACCATTCGCATGCGGCCCTATGCGTGCTTTTGTGAA
For orientation: Kd means the concentration at which binding is half-saturated. Consider B2, for which the dissociation constant (Kd) was 2680 nM.
